Source: publication doi:10.1101/2021.04.24.441256

Molecular target: the engineered RGA5_HMAs
Assay: SPR

“6xHis-tagged AVR-PikD (from UniProt C4B8B8 22-113) (natural protein)” showed a Kd of 0.5 to 1.6 nM.
